# Test results taken from publication PMC8142254, “The mycobacterial proteasomal ATPase Mpa forms a gapped ring to engage the 20S proteasome” (The Journal of Biological Chemistry, 2021).
# B1: Mycobacterium tuberculosis proteasomal ATPase Mpa, full-length (1–609) (enzyme)
# chain: MGESERSEAFGIPRDSPLSSGDAAELEQLRREAAVLREQLENAVGSHAPTRSARDIHQLEARIDSLAARNSKLMETLKEARQQLLALREEVDRLGQPPSGYGVLLATHDDDTVDVFTSGRKMRLTCSPNIDAASLKKGQTVRLNEALTVVEAGTFEAVGEISTLREILADGHRALVVGHADEERVVWLADPLIAEDLPDGLPEALNDDTRPRKLRPGDSLLVDTKAGYAFERIPKAEVEDLVLEEVPDVSYADIGGLSRQIEQIRDAVELPFLHKELYREYSLRPPKGVLLYGPPGCGKTLIAKAVANSLAKKMAEVRGDDAHEAKSYFLNIKGPELLNKFVGETERHIRLIFQRAREKASEGTPVIVFFDEMDSIFRTRGTGVSSDVETTVVPQLLSEIDGVEGLENVIVIGASNREDMIDPAILRPGRLDVKIKIERPDAEAAQDIYSKYLTEFLPVHADDLAEFDGDRSACIKAMIEKVVDRMYAEIDDNRFLEVTYANGDKEVMYFKDFNSGAMIQNVVDRAKKNAIKSVLETGQPGLRIQHLLDSIVDEFAENEDLPNTTNPDDWARISGKKGERIVYIRTLVTGKSSSASRAIDTESNLGQYL
# notes: Mpa (mycobacterial proteasome ATPase), Mycobacterium tuberculosis, full-length, residues 1-609; Homohexamer; In the cryo-EM model the coiled-coil domains and two of the six AAA domains are not resolved; also called mycobacterial proteasome ATPase; WT Mpa
# Tests used:
# [1] = target: Mycobacterium tuberculosis open-gate 20S proteasome core particle (20SOG CP) (Mycobacterium tuberculosis) (UniProt P9WHU1); assay: negative-stain EM; 2 M equivalents of Mpa hexamer, 3 M equivalents of Pup and 1 M equivalent of 20SOG CP with 3 mM ATP on ice for 40 min; 2D class averages of side views, capped versus uncapped CPs counted
# Mycobacterium tuberculosis open-gate 20S proteasome core particle (20SOG CP) (Mycobacterium tuberculosis), sequence (P9WHU1 whole entry, chain 1 of 2): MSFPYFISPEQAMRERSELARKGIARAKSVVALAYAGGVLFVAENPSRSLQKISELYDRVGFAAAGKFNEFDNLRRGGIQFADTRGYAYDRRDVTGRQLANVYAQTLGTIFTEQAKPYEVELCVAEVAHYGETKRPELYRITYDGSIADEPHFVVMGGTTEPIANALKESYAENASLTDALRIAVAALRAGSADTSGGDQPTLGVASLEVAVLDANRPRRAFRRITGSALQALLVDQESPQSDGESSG
# Mycobacterium tuberculosis open-gate 20S proteasome core particle (20SOG CP) (Mycobacterium tuberculosis), sequence (P9WHT9 58-291, chain 2 of 2, further chain): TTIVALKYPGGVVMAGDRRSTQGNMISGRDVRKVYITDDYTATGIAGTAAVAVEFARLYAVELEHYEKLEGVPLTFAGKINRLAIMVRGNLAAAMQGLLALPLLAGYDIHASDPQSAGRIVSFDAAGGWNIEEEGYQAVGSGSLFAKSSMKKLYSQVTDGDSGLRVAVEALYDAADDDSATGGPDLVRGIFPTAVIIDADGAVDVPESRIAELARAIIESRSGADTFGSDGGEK
# [2] = target: Mycobacterium tuberculosis open-gate 20S proteasome core particle (20SOG CP) (Mycobacterium tuberculosis) (UniProt P9WHU1); assay: negative-stain EM; 2 M equivalents of Mpa hexamer, 3 M equivalents of Pup and 1 M equivalent of 20SOG CP with 3 mM ADP on ice for 40 min; 2D class averages of side views, capped versus uncapped CPs counted
binder,measurement,setting,value
B1,percent of 20SOG CPs bound to Mpa hexamer,[1],37%
same,percent of 20SOG CPs bound to Mpa hexamer,[2],8%
